Measured values published in the nanobody polyreactivity screen of Harvey et al. (2022).

Assay: yeast display, Sf9 membrane polyspecificity reagent, FACS + sequencing; frameworks hold sequencing errors
Outline: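 Synthetic nanobody libraries on Saccharomyces cerevisiae BJ5465 were galactose-induced for 36–48 hours, stained 1 hour at 4 °C with 10% biotinylated, detergent-solubilized Sf9 membrane reagent and enriched on streptavidin microbeads. FACS then separated cells into low and high (top ~1%) gates by anti-HA (expression) and streptavidin (reagent binding) fluorescence. Genes were colony-PCR amplified, MiSeq 2 × 250 sequenced and CDR-length filtered. A clone's polyreactivity label is that of its gate of origin.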

| Sequence | polyreactivity (PSR sort gate) |
| --- | --- |
| QVQLVESGGGLVQAGGSLRLSCAASGFIFVGNDMGWYRQAPGKERELVAAISSGGTTIYADSVKGRFTISRDNAKNTVYLQMNSLKPEDTAVYFCAADYDYRQGYDSVHLDYWGQGTQVTVSS | low polyreactivity |
| QVQLVESGGGLVQAGGSLRLSCAASGLTFEWYTMGWYRQAHGKEREMVAVITVSGSSTYYADSVKGRFTISRDNAKNTVYLQMNSLKPEDTAVYYCNADWSFYSYTLYDYWGQGSQVTVSS | low polyreactivity |
| QGQRVESGGGLVQAGGSLRLSCAASGFIFWDYDMVWYRQAPGKEREMVAAISDSGGDTYYADSVKGRFTISRDNSKNTVYLQMHSLKREDTAVIYCAADVELWVFRGQQFDYWGQGTQVTVSS | low polyreactivity |
| QVQLVESGGGLVQAGGSLRLSCAASGSTFQIYTMGWYRQAPGKERELVAAITNGGGSTYYADSVKGRFTISRDNAKNTVYLQMNSLKPEDTAVYYCAAEQRYPLIILYDYWGQGTQVTVSS | low polyreactivity |
| QVQLVESGGGLVQAGGSLRLSCAASGSIFQGNVMGWYRQAPGKERELVAAIRNSGGTTYYADSVKGRFTISRDNAKNTVYLQMNSLKPEDTAVYYCAARYINRYPKAQPTDRSIYYWGQGTQVTVSS | high polyreactivity |
| QVQLVESGGGLVHAGGSLRLSCAASGLIFKTYTMGWYRQAPGKEREFVAAITTSGGSTYYADSVKGRFTISRDNAKNTDYVEMNRLKPEETAVYFCAAEGYTDATQSLFYYWGQGTQVTVSS | high polyreactivity |
| QVQLVESGGGLVQAGGSLRLSCAASGLTFYAYAMGWYRQAPVKERELVAAISVRGRSTYYADSVKGRFTISRDIAKNTVFLQMNSLKPEDTAVYYCAAEFYRVQNFQFYYWGQGTQVTVSS | high polyreactivity |
| QVQLVESGGGLVQAGGSLRLSCSASGITFWYNAMEWYRQAPGKERELVAAISRSAGSTYYADSVKGRFTISRDNAKNTVYLQMNSLKPEDTAVYYCAAKTPGRYYYWGQGTQVTVSS | high polyreactivity |
| QVQLVESRGGLVQAGGSLRLSCAASGRIFSSYAMGWYRQAPGKERELVAAISSRGGSTYYADSVKGRFTISRDNAKNTVYLQMNSLKPDDTAVYYCARVKYSGVVYKYDYWGQGTQVTVSS | high polyreactivity |
| QVQLVESGGGLVQAGGSLRLSCAASGRIFRRSALGWSRQAPGKEREFVAAISSGGSTYYADSVKGRFTISRDNAKKYRLFTDEQPETGRYRGLLLRCVRYDVNLYDYWGHGTQVTVSS | low polyreactivity |
| QVQLVESGGGLVQAGGSLRLSCAASGLTFVFYAMGWYRQAPGKERELVAAISSSGGSTNYADSVKGRFTISRDNAKNTVYLQMNSLKPEDTAVYYCNARGRSGGGRYDYWGQGTQVTVSS | high polyreactivity |
| QVQLVESGGGLVQAGGSLRLICAASGSTFTTYAMGWYRQAPGKEREFVAGISWSGGSTRYADSVKGRFTISRDNAKNTVYLQMNSLKPEDTAVYYCAAGRKRDSKYYYWGQGTQVTVSS | high polyreactivity |
| QVQLVESGGGLVQAGGSLRLSCAASGLTFGAYAMGWYRQAPGKERELVAAISDSGGTTYYADSVKGRFTISRDNAKNTVYLQMNSLKPEDTAVYYCAAVKSDVRYRYDYYWGQGTQVTVSS | low polyreactivity |
| QVQLVESGGGLVQAGGSLRLSCPASGSTFSYNMGWYRPAPGKERELVAAISGSGGSTYADSVKGRFTISRDNAKKTVYLQMNSLKPEDTAVYYCATVRYWVHEYGFWGLGTQVTVSS | high polyreactivity |
| QVQLVESGGGLVQAGGSLRLSCAASGGIFDSYAMGWYRQAPGKERELVADITWSGGSTYYADSVKGRFTISRDNAKNTVYLQMNSLKPEDTAVYYCAADDGSQYYFDSPHEYDYWGQGTQVTVSS | low polyreactivity |
| QVQLVESGGGLVQAGRSLRLSCAASGRTFPYYAMGWYRQAHGKEREFVAAISRRGASTYYADSVKGRFTISRDNAKNTVNLQMNSLKPEDTAVYYCNAVYRCYYSGELDYWGQGTQVTVSS | high polyreactivity |
| QVQLVESGGGLVQAGGSLRLSCAASGFTFWYYAMGWYRQAPGKEREMVAAISRSGTSTYYADSVKGRFTISRDNAKNTVYLQMNSLKPEDSAVYYCNVLRVKSITYLMDYWGQGTQVTVSS | high polyreactivity |
| QVQLVESGGGLVQAGGSLRLSCAASGSIFLNYAMGWYRQAPGKERELVAGISNGGSTNYADSVKGRFTISRDNAKYTVYLQMNSLKPEDTAVFYCARPGYKSRGKRFDYWGQGTQVTVSS | low polyreactivity |
| QVQLVESGGGLVQAGGSLRLSCAASGSIFEGYGMGWYRQAPGKERELVASISTGDSTKYADSVKGRFTISRDNAKNTVYLQMNSLKPEDTAVYYCNAPYFYLPHKYDYWGQGTQVTVSS | low polyreactivity |
| QVQLVESGGGLVQAGGSLLLSCAASGSIFFPNAMGWYRQAPGKERELVAAINWSGDSTYYADSVKGRFTISRDNAKNTVYLQMNSLKPVDTAVYSCNATYPWFDYDYWGQGTQVTVSS | low polyreactivity |
| QVQLVESGGGLVQAGGSLRLSCAASGRIFVSNAMGWYRQAPGKERELVAAISKSGGRTYYADSVKGRFTISRDNAKNTVYLQMNSLKPEDTAVYYCNAVISLPGNKYDYWGQGTQVTVSS | high polyreactivity |
| QVQLVESGGGLVQAGGSLRLSCAASGFIFGYNAMGWYRQAPGKERELVAAITWIGGTTYYADSVKGRFTISRDNAKNTVYLQMNSLKPEDTAVYYCARQRSYGRSSYSYGYDYWVQGTQVTVSS | high polyreactivity |

| Sequence | polyreactivity (PSR sort gate) |
| --- | --- |
| QVQLVESGGGLVQAGGSLRLSCAASGSIFRGYAMGWYRQAPGKERELVAAISIGGRTYYADSVKGRFTISRDNAKNTVYLQMNSLKPEDTAVYYCAVQKPKTGKGKKDTYGRDGYWGQGTQVTVSS | high polyreactivity |
| QVQLVESGGGLVQAGGSLRLSCAACGSIFPGYAMGWYRQAPGKERELVATIRWSSGSRTNYADSVKGRFTISRDNAKNTVYLQMNSLKPEDTAVYYCAAGSRRYKYDYWGQGTQVTVSS | high polyreactivity |
| QVQLVESGGGLVQAGGSLRLSGAASGRNFSTNAMGWYRPAPGKERELVAAITSGGNTYADSVKGRFTISRDNAKNTVYLQMNSLKPEDTAVYYCAARLYWGRYNYWGQGTQVTVSS | high polyreactivity |
| QVQLVESGGGLVQAGGSLRLSCAASGFTFVSYAMGWYRQAPGKERELVASITWTGGSTYYADSVKGRFTISRDNAKNTVYLQMNSLKPEDTAVYYGAAQQFYSGILGRYYWGQGTQVTVSS | low polyreactivity |
| QVQLVESGGGLVQAGVSLRLRCASSGSIFRRNVMGWYRQAPGKERELVAAISWSGGRTYYADSVKGRFTISRDNAKNTVYLQMNSLKPEDTAVYYCAAENGYYAYDYWGQGTQVTVSS | high polyreactivity |
| QVQLVESGGGLVQAGGSLRLSCAASGRIFPGYDMGWYRQAPGKERELVAAISASGGSTYYADSVKGRFTISRDNAKNTVYLQMNSLKPEDTAVYYCNAVYRLIRFDYWGQGTQVTVSS | high polyreactivity |
| QVQLVESGGGLVQAGGSLRLSCAASGSIFGRYAMGWYRQAPGKERELVAAITYRGGTTYYADSVKGRFTISRDNAKNTVYLQMNSLKPEDTAVYYCAAEGTWYYKYGYFAYYYWGQGTQVTVSS | low polyreactivity |
| QFQLVESGGGLVQAGGSLRLSCAASGITFFPYAMGWYRQAPGKERELVASISDGGGTNYADSVKGRFTISRDNAKNTVYLQMNSLKPEDTAVYYCATDASTYAYYGGDYWGQGTQVTVSS | low polyreactivity |
| QVQLVESGGGLVQAGGSLRLSCAASGSTFYAYAMGWYRQAPGKERELVAGISKRVGRTYYADSVKGRFTISRDNAKNTVYLQMNSLKPEDTAVYYCNADVYAYPATWLDYWGQGTQVTVSS | high polyreactivity |
| QVQLVESGGGLVHAGGRLRLSCPPSGRIFSYYTMGWYRQAPGKERELVAAISRGVSTNYADSVKGRFTISRDNAKNTVYLQMNSLKPEYSAVYYCNARHTWYYKYLHEYWGQGTQVTVSS | high polyreactivity |
| QEQHVESGGGLVQAGGSLRLSCAATGLIIYYYAMGWYRQAPGKEMEFVAAISTSGSRTYYADSVKGRFTISRDNAKNTVSLQMNSLKPEDTAVYYCAAEPGRSRYAWGYSYPYDYWGQGTQVTVSS | high polyreactivity |
| QVQLVESGGGLVQAGGSLRLSCAASGSTFAPNAMGWYRQAPGKEKEIVSGITWGDSTYYADSVKGRFTISRDNAKNTVYLQMNSLKPEDTAVYYCAVRWVWNPWGIQGDWAVDYDYWGQGTQVTVSS | low polyreactivity |
| QVQLVESGGGLVQAGGSLRLSCAASGRIFGPNAMGWYRQAPGKETELVAVISTGGSTNYADSVKGRFTISRDNAKNTVYLQMNSLKPEDTAVYYCAAAYQYERGGLYNRFYYWGQGTQVTVSS | low polyreactivity |
| QVQLVESGGGLVQAGGSLRLSCAASGRLFYQYAMGWSRQAPGKERELVAAISRSGGSTSYADSVKGRFTISRDNAKNTVYLQMNSLKPEDTAVYYCNARRWWDFQGYDYWGQGTQVTVSS | high polyreactivity |
| QVQLVESGGGLVQAGCSLRLSCAATGRSFRRNTMGWYRQAPGKERELVAAISSSGSSTYYADSVKGRFTISRDNAKNTVFLQMNSLKPEDTAVYYCAARGRGQPFVRYDYWGQGTQVTVSS | high polyreactivity |
| KDQLVESGGGLVQAGGSLRLSCAASGLTFGGNAMGWYRQAPGKERELVAGISSSGNTNDADSVKGRFTISRDNAKNTVYLQLNSLKPEDTAVYYCAADENITYPVYDLYYWGQGTQVTVSS | low polyreactivity |
| QVQLVESGGGLVQAGGSLRLSCAASGSTFFTYTMGWYRQAPGKERELVAAISSGGSTYYADSVKGRFTISRDNAKNTVYLQMNSLKPEDTAVYYLLRGQGTQVTVSS | low polyreactivity |
| QVQLVESGGGLVQAGGSLRLSCAASGFTFYDYAMGWYRQAPGKERELVAAISWDGDRTYYADSVNGRFTISRDNAKNTVYLQMNSLKPEDTAVYYCNAEYSSFSDVQKDSDMDYWGQGTQVTVSS | low polyreactivity |
| QVQLVESGGGLVQAGGSLRLSCAASGSTFPGYAMGWYRQAPGKERELVAAISASGGSTYYADSVKGRFTISRDNAKNTVYLQMNSLKPEDTAVYYCAKVLSRGASAHDYWGQGTQVTVSS | low polyreactivity |
| QVQLVESGGGLVQAGGSLRLSCAASGRIFYPYAMGWYRQAPGKEWELVAAINRSAGSTSYADSVKGRFTISRDNAKNTVYLQMKSLKPEDTAVYYCAAQGRWHRHFDYWGQGTQVNVSS | high polyreactivity |
| QVHLVETVRGLLQAGGSLRISCAASGRSFKRYAMGWYRQAPGKERELVAAITRSGGSTYYADSVKGRFTISRDNAKNTVYLQMNSLKPEDTAVYYCATRSYNNELEYWGQGSQVTVSS | high polyreactivity |
